In IntAct's records for PubMed 20228790:

Biological target: PRKCB, P05771-1
Sequence (P05771 whole entry, looked up): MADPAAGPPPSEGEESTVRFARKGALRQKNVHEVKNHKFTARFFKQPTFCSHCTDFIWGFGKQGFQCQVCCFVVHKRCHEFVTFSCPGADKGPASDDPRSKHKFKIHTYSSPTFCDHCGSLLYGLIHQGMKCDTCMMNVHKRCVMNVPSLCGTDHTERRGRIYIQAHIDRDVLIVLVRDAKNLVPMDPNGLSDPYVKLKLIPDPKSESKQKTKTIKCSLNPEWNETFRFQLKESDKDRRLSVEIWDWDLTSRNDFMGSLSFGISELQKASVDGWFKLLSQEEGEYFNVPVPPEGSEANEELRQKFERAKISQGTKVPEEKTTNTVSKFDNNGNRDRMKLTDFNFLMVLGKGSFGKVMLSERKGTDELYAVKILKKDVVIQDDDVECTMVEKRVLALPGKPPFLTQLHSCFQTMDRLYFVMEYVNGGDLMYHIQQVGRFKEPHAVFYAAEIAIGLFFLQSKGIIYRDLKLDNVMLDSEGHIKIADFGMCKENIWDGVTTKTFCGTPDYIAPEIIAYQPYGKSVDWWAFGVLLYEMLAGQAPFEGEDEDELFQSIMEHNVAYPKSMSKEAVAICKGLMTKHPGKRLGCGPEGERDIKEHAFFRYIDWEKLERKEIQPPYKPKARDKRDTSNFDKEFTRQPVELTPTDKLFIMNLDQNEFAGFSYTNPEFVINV

## Histone H3.1 (Homo sapiens) (from UniProt P68431) T7A
  effect of a mutation on the interaction: disrupting interaction
